Reference: US20260139049A1 (PEDIATRIC IMMUNITY AND HEALTHCARE GUANGZHOU BIOTECHNOLOGY, published 2026)
Like-named read-outs stand apart in the source and are kept apart here.

Legend:
human CLDN9 [1] = target: T1, human CLDN9 (human, UniProt O95484 1-217); assay: FACS on 293T-CLDN9 cells
T1 construct: whole, on cells; also called HEK293T-CLDN9
T1 sequence (looked up): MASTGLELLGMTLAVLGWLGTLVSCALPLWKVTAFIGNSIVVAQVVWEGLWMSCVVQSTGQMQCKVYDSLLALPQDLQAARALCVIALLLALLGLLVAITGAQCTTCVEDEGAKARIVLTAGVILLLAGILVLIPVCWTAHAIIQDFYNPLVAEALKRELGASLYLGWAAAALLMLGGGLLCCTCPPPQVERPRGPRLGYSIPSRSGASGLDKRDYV

mouse CLDN6 [2] = target: T2, mouse CLDN6 (mouse, UniProt Q9Z262 1-219); assay: FACS on CHO-K1-Mouse CLDN6 cells (FIG. 15)
T2 construct: whole, on cells; also called CHO-K1-Mouse CLDN6
T2 sequence (looked up): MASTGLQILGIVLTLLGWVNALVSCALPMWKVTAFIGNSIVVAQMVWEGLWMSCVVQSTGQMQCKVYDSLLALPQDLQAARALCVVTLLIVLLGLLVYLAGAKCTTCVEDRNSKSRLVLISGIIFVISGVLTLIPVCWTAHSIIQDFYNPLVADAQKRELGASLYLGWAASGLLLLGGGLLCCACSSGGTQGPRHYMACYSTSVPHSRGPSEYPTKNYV

human CLDN6 [3] = target: T3, human CLDN6 (human, UniProt P56747 1-220); assay: FACS on 293T-CLDN6 cells, 10 µg/mL
T3 construct: whole, on cells; four-transmembrane protein; also called claudin-6; HEK293T-CLDN6
T3 sequence (looked up): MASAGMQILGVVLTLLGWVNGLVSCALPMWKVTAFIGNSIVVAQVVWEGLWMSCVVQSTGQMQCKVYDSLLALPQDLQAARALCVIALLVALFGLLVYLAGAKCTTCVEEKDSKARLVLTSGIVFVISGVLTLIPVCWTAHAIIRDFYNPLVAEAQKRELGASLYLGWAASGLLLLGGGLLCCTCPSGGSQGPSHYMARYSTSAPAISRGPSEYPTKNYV

human CLDN9 [4] = target: T1, human CLDN9; assay: FACS on 293T-CLDN9 cells, 10 µg/mL
Experimental: (§1) 50 μL of an antibody to be tested was added to a 96-well plate, then 1× 10⁵ cells were added to each well, and incubation was conducted at 4° C. for 1 h. Cells were washed three times with PBS. […] Finally, cells were washed three times with PBS, and signals were read using FACS. Binding capacities of the antibody to CLDN9, CLDN3, and CLDN4 were analyzed separately based on detection data.

human CLDN6 [5] = target: T3, human CLDN6; assay: FACS on HepG2 tumour cells; target on the cells taken as CLDN6
Experimental: (§2) The specific binding of a chimeric antibody to a tumor cell was detected by FACS, and an EC50 value was calculated accordingly to evaluate an inhibitory effect of the chimeric antibody on the tumor cell.
(§3) 50 μL of an antibody to be tested was added to a 96-well plate, then 1×10⁵ cells were added to each well, and incubation was conducted at 4° C. for 1 h. Cells were washed three times with PBS. […] Finally, cells were washed three times with PBS, and signals were read using FACS. A binding capacity of the antibody to each tumor cell was analyzed based on detection data.

[6] = target: T4, monkey CLDN6 (Cyno CLDN6) (monkey (Cyno)); assay: FACS on CHO-K1-Cyno CLDN6 cells
T4 construct: whole, on cells; also called CHO-K1-Cyno CLDN6

human CLDN6 [7] = target: T3, human CLDN6; assay: FACS on HEK293T-CLDN6 cells
Experimental: (§4) To detect a binding capacity of a chimeric or humanized antibody to CLDN6, a CLDN6-expressing cell line HEK293T-CLDN6 and a CLDN6-negative control cell line HEK293T were washed three times with PBS. 1×10⁵ test cells and 50 μL of an antibody solution to be tested were added to a 96-well plate, and incubated at 4° C. for 1 h. The cells were then washed three times with PBS. […] Finally, cells were washed three times with PBS, and signals were read using FACS.

human CLDN6 [8] = target: T3, human CLDN6; assay: FACS on PA-1 tumour cells; target on the cells taken as CLDN6
Experimental: as §2, §3

human CLDN6 [9] = target: T3, human CLDN6; assay: FACS on HEK293T-CLDN6 cells; remark: listed apart in the source
Experimental: as §4
(§5) An EC50 value (a concentration of an antibody that binds to half of binding sites at equilibrium) is calculated through nonlinear regression.

mouse CLDN6 [10] = target: T2, mouse CLDN6; assay: FACS on CHO-K1-Mouse CLDN6 cells
human CLDN9 [11] = target: T1, human CLDN9; assay: FACS on 293T-CLDN9 cells, 10 µg/mL; remark: listed apart in the source
Experimental: as §1

human CLDN6 [12] = target: T3, human CLDN6; assay: FACS on 293T-CLDN6 cells, 10 µg/mL; remark: listed apart in the source
human CLDN6 [13] = target: T3, human CLDN6; assay: FACS on HepG2 tumour cells; target on the cells taken as CLDN6; remark: listed apart in the source
Experimental: as §3

human CLDN6 [14] = target: T3, human CLDN6; assay: as above; remark: listed apart in the source
Experimental: as §3

human CLDN9 [15] = target: T1, human CLDN9; assay: FACS on 293T-CLDN9 cells, 10 µg/mL; remark: listed apart in the source
Experimental: as §1

human CLDN6 [16] = target: T3, human CLDN6; assay: FACS on PA-1 tumour cells; target on the cells taken as CLDN6; remark: listed apart in the source
Experimental: as §3

human CLDN6 [17] = target: T3, human CLDN6; assay: FACS on HEK293T-CLDN6 cells; remark: listed apart in the source
Experimental: as §4, §5

human CLDN6 [18] = target: T3, human CLDN6; assay: cell-based or functional assay
human CLDN6 [19] = target: T3, human CLDN6; assay: cell-based or functional assay; remark: listed apart in the source
human CLDN6 [20] = target: T3, human CLDN6; assay: ratio of FACS Geom.Mean on 293T-CLDN6 over 293T-CLDN9, 10 µg/mL
Experimental: as §1

human CLDN6 [21] = target: T3, human CLDN6; assay: ratio of FACS signals on CLDN6 cells over CLDN9 cells
Experimental: as §1

human CLDN3 = target: T5, human CLDN3 (human, UniProt O15551 1-220); assay: FACS on 293T-CLDN3 cells, 10 µg/mL
T5 construct: whole, on cells; also called HEK293T-CLDN3
T5 sequence (looked up): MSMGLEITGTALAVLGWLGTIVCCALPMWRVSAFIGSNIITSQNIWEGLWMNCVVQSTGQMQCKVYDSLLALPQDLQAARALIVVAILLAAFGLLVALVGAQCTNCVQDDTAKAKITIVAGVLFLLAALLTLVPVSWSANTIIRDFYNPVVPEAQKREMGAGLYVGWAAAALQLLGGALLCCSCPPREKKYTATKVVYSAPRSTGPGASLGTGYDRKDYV
Experimental: as §1

human CLDN6 [22] = target: T3, human CLDN6; assay: FACS on 293T-CLDN6 cells, 10 µg/mL; remark: listed apart in the source
human CLDN4 = target: T6, human CLDN4 (human, UniProt O14493 1-209); assay: FACS on 293T-CLDN4 cells, 10 µg/mL
T6 construct: whole, on cells; also called HEK293T-CLDN4
T6 sequence (looked up): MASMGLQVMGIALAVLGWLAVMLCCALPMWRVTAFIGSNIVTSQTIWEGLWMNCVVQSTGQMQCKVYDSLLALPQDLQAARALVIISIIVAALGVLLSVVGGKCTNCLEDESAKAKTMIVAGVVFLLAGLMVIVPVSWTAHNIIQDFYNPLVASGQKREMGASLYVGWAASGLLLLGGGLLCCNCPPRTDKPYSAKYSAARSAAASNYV
Experimental: as §1

human CLDN6 [23] = target: T3, human CLDN6; assay: FACS on HEK293T-CLDN6 cells; remark: listed apart in the source
Experimental: as §4, §5

B1: 20A3-2A7 (antibody, human IgG1, kappa, V domains shown)
VH: QAYLQQSGAELVRSGASVKMSCKASGYTFTSYNMHWVKQTPGQGLEWIGYIYPGNGGTNYNQKFKGKATLTADTSSSTAYMQISSLTSEDSAVYFCARWKYYDKTTHYALDYWGQGTLVTVSS
VL: DIVLTQSPASLAVSLGQWATISCRASKSVSTSGYSYIHWHQQKPGQPPKLLIYLASNLESGVPARFSGSGSGTDFTLNIHPVEEEDAATYYCHHSRELPFTFGSGTKLEIKR
notes: chimeric: murine variable regions on human IgG1 constant regions
- binding result (human CLDN9 [1]): binds
- binding result (mouse CLDN6 [2]): binds

B2: 20A3-M1 (antibody, human IgG1, kappa, V domains shown)
VH: QAYLQQSGAELVRSGASVKMSCKASGYTFTSYNMHWVKQTPGQGLEWIGYIYPGNAGTNYNQKFKGKATLTADTSSSTAYMQISSLTSEDSAVYFCARWKYYDKTTHYALDYWGQGTLVTVSS
VL: DIVLTQSPASLAVSLGQWATISCRASKSVSTSGYSYIHWHQQKPGQPPKLLIYLASNLESGVPARFSGSGSGTDFTLNIHPVEEEDAATYYCHHSRELPFTFGSGTKLEIKR
notes: 20A3-2A7 with G of NG in heavy-chain CDR2 changed to A; also called improved antibody 20A3-M1
- Geom.Mean (human CLDN6 [3]): 40200
- Geom.Mean (human CLDN9 [4]): 243

B3: 20A3-M2 (antibody, human IgG1, kappa, V domains shown)
VH: QAYLQQSGAELVRSGASVKMSCKASGYTFTSYNMHWVKQTPGQGLEWIGYIYPGNQGTNYNQKFKGKATLTADTSSSTAYMQISSLTSEDSAVYFCARWKYYDKTTHYALDYWGQGTLVTVSS
VL: DIVLTQSPASLAVSLGQWATISCRASKSVSTSGYSYIHWHQQKPGQPPKLLIYLASNLESGVPARFSGSGSGTDFTLNIHPVEEEDAATYYCHHSRELPFTFGSGTKLEIKR
notes: 20A3-2A7 with G of NG in heavy-chain CDR2 changed to Q; also called improved antibody 20A3-M2
- Geom.Mean (human CLDN6 [3]): 34000
- Geom.Mean (human CLDN9 [4]): 297

B4: 47A5B10 (antibody, human IgG1, kappa, V domains shown)
VH: QGQLQQSGAELARPGASVKLSCKASGYTFTSYGISWVKQRTGQGLEWIGEIYPRSGNTYHNEKFKGKATLTADKSSSTAYMELRSLTSEDSAVYFCARSSYDYYAMDYWGQGTSVTVSS
VL: EIVVTQSPALMAASPGEKVTITCSVSSIISSSKLHWYQQKSETSPKPWIYGTSNLASGVPIRFSGSGSGTSYSLTISSMEAEDAATYYCQQWSSYPLTFGAGTKLELKR
notes: as for B1
- EC50 (human CLDN6 [5]): 1.38 µg/mL
- EC50 [6]: 0.343 µg/mL
- FACS signal (human CLDN6 [7]): 33000
- EC50 (human CLDN6 [8]): 0.737 µg/mL
- EC50 (human CLDN6 [9]): 0.674 µg/mL
- EC50 (mouse CLDN6 [10]): 0.633 µg/mL

B5: 51C10-M1 (antibody, human IgG1, kappa, V domains shown)
VH: EVQLQQSGPELVKPGASVKMSCKASGYTFTDYNMHWVKKSHGKSLEWIGYVNPNNAATSYNQKFKGKATLTVNKSSSTAYMELRSLTSEDSAVYNCARWDGYVYYYGLDYWGQGTSVTVSS
VL: DIQMTQSSSYLSVSLGGRVTITCKASDHINNWLAWYQQKPGNAPRLLISGATSLETGVPSRFSGSGSGKDYTLSITSLQTEDVATYYCQQYWSTPYTFGGGTKLEIKR
notes: 51C10H4 with G of NG in heavy-chain CDR2 changed to A; also called improved antibody 51C10-M1
- Geom.Mean (human CLDN9 [11]): 1170
- Geom.Mean (human CLDN6 [12]): 41400

B6: 54B5A7 (antibody, human IgG1, kappa, V domains shown)
VH: EVQLQQSGPELVKPGASVKMSCKASGYTFTDYNMHWVKKSHGKSLEWIGYINPNNGATNYNQKFKGKATLTVNKSSSTAYMELRSLTSEDSAVYNCARWDGYVYYYGMDYWGQGTSVTVSS
VL: DIQMTQSSSYLSVSLGGRVTITCKASDHINNWLAWYQQKPGNAPRLLISGATSLETGVPSRFSGSGSGKDYTLSITSLQTEDVATYYCQQYWNTPYTFGGGTKLEIKR
notes: chimeric IgG1
- EC50 (human CLDN6 [5]): 0.449 µg/mL
- EC50 [6]: 0.78 µg/mL
- EC50 (human CLDN6 [8]): 0.64 µg/mL
- EC50 (human CLDN6 [13]): 0.552 µg/mL
- EC50 (human CLDN6 [14]): 0.47 µg/mL
- Geom.Mean (human CLDN9 [15]): 141
- EC50 (human CLDN6 [16]): 0.415 µg/mL
- EC50 (human CLDN6 [17]): 0.285 µg/mL
- ADCC dose-response fit: EC50 (human CLDN6 [18]): 0.0413 µg/mL
- ADCC dose-response fit: LogEC50 (human CLDN6 [18]): -1.39
- CDC dose-response fit: EC50 (human CLDN6 [19]): 0.252 µg/mL
- CDC dose-response fit: LogEC50 (human CLDN6 [19]): -0.6
- CLDN6/CLDN9 ratio (human CLDN6 [20]): 265
- CLDN6/CLDN9 signal ratio (human CLDN6 [21]): ~200 fold
- Geom.Mean (human CLDN3): 101
- EC50 (human CLDN6 [9]): 0.352 µg/mL
- Geom.Mean (human CLDN6 [22]): 37500
- EC50 (mouse CLDN6 [10]): 1.5 µg/mL
- Geom.Mean (human CLDN4): 104

B7: RecA101 (antibody, human IgG1, kappa, V domains shown)
VH: EVQLQQSGPELVKPGASVKMSCKASGYTFTDYNMHWVKKSHGKSLEWIGYVNPNNGATSYNQKFKGKATLTVNKSSSTAYMELRSLTSEDSAVYNCARWDGYVYYYGLDYWGQGTSVTVSS
VL: DIQMTQSSSYLSVSLGGRVTITCKASDHINNWLAWYQQKPGNAPRLLISGATSLETGVPSRFSGSGSGKDYTLSITSLQTEDVATYYCQQYWNTPYTFGGGTKLEIKR
notes: heavy chain of 51C10H4 with light chain of 54B5A7; IgG1; also called improved chimeric monoclonal antibody RecA101; recombined chimeric monoclonal antibody RecA101
- Geom.Mean (human CLDN9 [11]): 1740
- Geom.Mean (human CLDN6 [12]): 41800
- EC50 (human CLDN6 [23]): 0.73 µg/mL
